In general, Kd refers to the constant that tells how readily two partners part at equilibrium. A higher Kd goes with a looser complex.

The record followed here is patent US20240209095A1 (published 2024).

The target in the test is PDL1-hFc (UniProt Q9NZQ7 19-238). The test is described as follows: ELISA. For orientation: An ELISA detects its analyte on a solid surface through an enzyme-linked reagent.
Chain of PDL1-hFc (Q9NZQ7 19-238): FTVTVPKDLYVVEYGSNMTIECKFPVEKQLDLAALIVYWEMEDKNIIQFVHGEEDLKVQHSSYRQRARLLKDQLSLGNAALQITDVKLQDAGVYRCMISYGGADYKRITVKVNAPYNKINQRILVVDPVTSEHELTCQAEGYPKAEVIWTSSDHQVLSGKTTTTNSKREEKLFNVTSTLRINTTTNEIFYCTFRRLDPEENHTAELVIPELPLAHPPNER

B1: mouse-human chimera 3C3 MM (antibody, V domains shown)
VH: EVQLQESGPGLTKPSQTLSLTCSVTGYSITSDYWDWIRKFPGNKLEYMGYISYTGSTYYNPSLRSRISITRDTSKNQYYLQLSSVTSEDSATYYCARRGGWLSPFVYWGQGTLVTVSA
VL: DTVMSQSPSSLGVSVGERVTLTCKSRQSLLFSSNQKNSLAWYQQKPGQSPKLLIYWASTRESGVPDRFTGSGSGTDFTLTISSVKSEDLAVYYCQQYYTYPFTFGAGTSLELK
In the case of B1, binding was characterised by a dissociation constant (Kd) of 0.0666 nM. In other words, the picomolar range.
